The values that follow come from paper PMC4848090, “Mechanistic insight into a peptide hormone signaling complex mediating floral organ abscission” (eLife, 2016).

T1: 1:1 HAESA – SERK1 ectodomain mixture (Arabidopsis thaliana, UniProt P47735 20-620; Q94AG2 24-213, Asn115→Asp | Asn163→Gln, N-glycans)
T1 construct: HAESA, Arabidopsis thaliana, ectodomain residues 20–620; SERK1, Arabidopsis thaliana, ectodomain residues 24–213; they are the content of the ITC cell into which the peptides were titrated; also called HAESA/SERK1 protein solution; HAESA - SERK1 mixture; source: Trichoplusia ni Tnao38 cells (baculovirus), each ectodomain expressed and purified separately, then mixed 1:1; not …
T1 sequence (looked up) 1: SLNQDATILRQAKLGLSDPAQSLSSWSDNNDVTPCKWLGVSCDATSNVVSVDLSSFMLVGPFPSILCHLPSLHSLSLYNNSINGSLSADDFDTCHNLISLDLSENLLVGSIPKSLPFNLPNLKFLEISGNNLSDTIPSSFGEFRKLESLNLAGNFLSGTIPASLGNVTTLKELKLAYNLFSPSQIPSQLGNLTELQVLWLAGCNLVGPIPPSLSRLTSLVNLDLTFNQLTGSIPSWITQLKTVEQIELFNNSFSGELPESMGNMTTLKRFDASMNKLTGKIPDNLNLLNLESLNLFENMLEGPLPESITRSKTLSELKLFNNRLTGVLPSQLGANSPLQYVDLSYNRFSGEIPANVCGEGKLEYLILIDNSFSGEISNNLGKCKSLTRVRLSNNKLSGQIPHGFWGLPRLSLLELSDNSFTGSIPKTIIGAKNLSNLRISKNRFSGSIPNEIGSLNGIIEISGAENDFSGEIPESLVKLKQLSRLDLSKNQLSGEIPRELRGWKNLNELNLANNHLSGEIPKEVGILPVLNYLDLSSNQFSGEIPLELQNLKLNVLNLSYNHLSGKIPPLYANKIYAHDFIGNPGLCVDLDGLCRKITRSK
T1 sequence (looked up) 2: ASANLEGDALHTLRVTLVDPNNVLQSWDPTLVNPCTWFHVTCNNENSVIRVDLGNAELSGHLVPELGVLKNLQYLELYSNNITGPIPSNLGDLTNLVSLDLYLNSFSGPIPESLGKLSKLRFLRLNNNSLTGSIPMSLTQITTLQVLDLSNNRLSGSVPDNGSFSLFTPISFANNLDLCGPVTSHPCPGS

T2: 1:1 HAESA – SERK1 ectodomain mixture (Arabidopsis thaliana, UniProt P47735 20-620; Q94AG2 24-213, Asn115→Asp | Asn163→Gln, N-glycans)
T2 sequence 1: T1 sequence (looked up) 1
T2 sequence 2: T1 sequence (looked up) 2

T3: Arabidopsis thaliana SERK1 ectodomain (residues 24–213, Asn115→Asp and Asn163→Gln) (Arabidopsis thaliana, UniProt Q94AG2 24-213, Asn115→Asp | Asn163→Gln)
T3 sequence: T1 sequence (looked up) 2

T4: Arabidopsis thaliana HAESA ectodomain (residues 20–620) (Arabidopsis thaliana, UniProt P47735 20-620, N-glycans (glycoprotein of ~75 kDa))
T4 construct: HAESA, leucine-rich repeat receptor kinase, Arabidopsis thaliana, ectodomain residues 20–620; Synthetic gene, codon optimized; the vector provides an azurocidin signal peptide for secretion; also called HAESA LRR domain; HAESA LRR ectodomain; not shown: Strep, C-terminal, cleaved; 9xHis, C-terminal, cleaved
T4 sequence (looked up): T1 sequence (looked up) 1

B1: synthetic IDA peptide YVPIPPSA-Hyp-SKRHN (peptide)
peptide: YVPIPPSA[Hyp]SKRHN
notes: N-terminal Tyr residue added to allow for peptide quantification by UV absorbance; INFLORESCENCE DEFICIENT IN ABSCISSION (IDA), Arabidopsis thaliana; Hyp written as P; Used in ITC and for the HAESA-IDA-SERK1 complex that was crystallised; also called wild-type IDA; IDA wild-type; source: synthetic peptide
B2: Arabidopsis thaliana HAESA ectodomain (residues 20–620) (domain or fragment)
chain: T1 sequence (looked up) 1
modifications: N-glycans (glycoprotein of ~75 kDa)
B3: synthetic Lys66/Arg67 → Ala mutant IDA peptide (peptide)
peptide: YVPIPPSA[Hyp]SAAHN
notes: INFLORESCENCE DEFICIENT IN ABSCISSION (IDA), Arabidopsis thaliana; as the IDA stretch of m3 with the two changes; also called IDA K66A/R67A; IDA K66A/R66A; source: synthetic peptide
B4: synthetic IDA peptide PIPPSA-Hyp-SKRHN (crystal soak) (peptide)
peptide: PIPPSA[Hyp]SKRHN
notes: INFLORESCENCE DEFICIENT IN ABSCISSION (IDA), Arabidopsis thaliana, residues 58-69; Hyp written as P; also called dodecamer peptide; source: synthetic peptide
B5: synthetic PKGV-IDA peptide YPKGVPIPPSA-Hyp-SKRHN (peptide)
peptide: YPKGVPIPPSA[Hyp]SKRHN
notes: N-terminal Tyr; INFLORESCENCE DEFICIENT IN ABSCISSION (IDA), Arabidopsis thaliana; Hyp written as P; also called N-terminally extended IDA peptide; source: synthetic peptide
B6: synthetic IDL1 peptide LVPPSG-Hyp-SMRHN (crystal soak) (peptide)
peptide: LVPPSG[Hyp]SMRHN
notes: IDA-LIKE 1 (IDL1), Arabidopsis thaliana; Hyp written as P; source: synthetic peptide

Non-standard residues stand in square brackets, D forms with d. No end group written: not given here. Hyp = O=C(O)[C@@H]1C[C@@H](O)CN1

Test [1] has as its target T5, HAESA ectodomain (residues 20–620) (Arabidopsis thaliana, UniProt P47735).
T5 construct: We purified the HAESA ectodomain (residues 20–620) from baculovirus-infected insect cells; azurocidin signal peptide (N); made in house; host or cells: Trichoplusia ni Tnao38 insect cells (baculovirus, secreted)
Put plainly: Isothermal titration calorimetry of synthetic IDA-family peptides vs. the isolated HAESA ectodomain. Format: binding. The text has this:
Synthetic genes coding for the Arabidopsis thaliana HAESA (residues 20–620) and SERK1 ectodomains (residues 24–213, carrying Asn115→Asp and Asn163→Gln mutations), codon optimized for expression in Trichoplusia ni (Geneart, Germany), were cloned into a modified pBAC-6 transfer vector (Novagen, Billerica, MA), providing an azurocidin signal peptide and a C-terminal TEV (tobacco etch virus protease) cleavable Strep-9xHis tandem affinity tag. Recombinant baculoviruses were generated by co-transfecting transfer vectors with linearised baculovirus DNA (ProFold-ER1, AB vector, San Diego, CA) followed by viral amplification in Spodoptera frugiperda Sf9 cells. […] The purified HAESA ectodomain was incubated with a synthetic IDA peptide (YVPIPPSA-Hyp-SKRHN, the N-terminal Tyr residue was added to allow for peptide quantification by UV absorbance) and the SERK1 ectodomain in 1:1:1.5 molar ratio. […]
ITC experiments were performed using a Nano ITC (TA Instruments, New Castle, DE) with a 1.0 mL standard cell and a 250 μL titration syringe. […] Molar protein concentrations for SERK1 and HAESA were calculated using their molar extinction coefficient and a molecular weight of 27,551 and 74,896 Da, respectively (determined by MALDI-TOF mass spectrometry). […] Data were analyzed using the NanoAnalyze program (version 2.3.6) as provided by the manufacturer.
In general terms: In ITC the heat of successive injections is recorded.

Test [2] concerns HAESA and SERK1 ectodomains. Description: Analytical size-exclusion chromatography of HAESA – SERK1 ectodomain complex formation with peptide. It counts as binding, Arabidopsis thaliana. The conditions noted are these: Superdex 200 HR 10/30, 20 mM citric acid pH 5, 100 mM NaCl; peptide 25 μM; HAESA and SERK1 1:1 molar ratio; UV 280 nm. As to the method:
Gel filtration experiments were performed using a Superdex 200 HR 10/30 column (GE Healthcare) pre-equilibrated in 20 mM citric acid (pH 5) and 100 mM NaCl. 100 μL of the isolated HAESA ectodomain (5.5 mg/mL), of the purified SERK1 LRR domain (3 mg/mL) or of mixtures of HAESA and SERK1 (either in the presence or absence of synthetic wild-type IDA, wild-type IDL1 or mutant IDA peptides at a concentration of 25 μM; 10 mg/mL; samples contained HAESA and SERK1 in 1:1 molar ratio) were loaded sequentially onto the column and elution at 0.5 mL/min was monitored by ultraviolet absorbance at 280 nm.

The target of test [3] is T1, 1:1 HAESA – SERK1 ectodomain mixture. Description: ITC; 150 μM wild-type or mutant IDA peptide in the syringe, 10 μM of a 1:1 HAESA – SERK1 protein mixture in the cell; 25°C; 20 mM citric acid pH 5.0, 100 mM NaCl. As to conditions: both partners purified.
Test [4] deals with T2, 1:1 HAESA – SERK1 ectodomain mixture. Put plainly: ITC; HAESA - SERK1 mixture in cell.
In test [5] the target is T3, Arabidopsis thaliana SERK1 ectodomain …. Put plainly: ITC; in presence of IDA.
The target in test [6] is T4, Arabidopsis thaliana HAESA ectodomain …. Description: crystal structure; apo HAESA ectodomain crystals soaked in crystallization buffer with 15 mM synthetic peptide. The conditions noted are these: both partners purified.
Test [7] deals with B2. Description: ITC.

As usually defined, the Kd is the free concentration of one partner at which half of the binding sites on the other are occupied at equilibrium, for simple one-to-one binding. For `CC[C@H](C)[C@H](NC(=O)[C@@H]1CCCN1C(=O)[C@@H](NC(=O)[C@@H](N)Cc1ccc(O)cc1)C(C)C)C(=O)N1CCC[C@H]1C(=O)N1CCC[C@H]1C(=O)N[C@@H](CO)C(=O)N[C@@H](C)C(=O)N1C[C@H](O)C[C@H]1C(=O)N[C@@H](CO)C(=O)N[C@@H](CCCCN)C(=O)N[C@@H](CCCNC(=N)N)C(=O)N[C@@H](Cc1c[nH]cn1)C(=O)N[C@@H](CC(N)=O)C(=O)O` [IDA], in test [1], binding was put at a Kd of 20 ± 0.9 µM. “IDA Hyp64P: IDA mutant peptide with Hyp64 replaced with proline (YVPIPPSAPSKRHN)”: in test [2], the “HAESA – SERK1 complex formation in size exclusion chromatography” value is “no complex formation”.

On to “YPIPPSA[Hyp]SKRHNSFVN [IDA-SFVN, C-terminally extended IDA peptide]”, for which the “binding to the HAESA ectodomain, in words” value in test [1] (ITC) was “cannot bind”. Take B1: the “fold higher binding affinity than for HAESA alone” value in test [3] was roughly 60 fold. Moreover, in test [4], the dissociation constant (Kd) came out at 0.35 µM.

As for B2, the dissociation constant (Kd) in test [5] was 0.075 µM. For B3, the “fold reduced binding affinity against wild-type IDA” value in test [3] worked out at 10 fold. As to B4, in test [6], the binding result is recorded as “binds”.

As for YLVPPSG[Hyp]SMRHN [synthetic IDL1 peptide YLVPPSG-Hyp-SMRHN (ITC)], in test [7], the Kd is 135 µM. In test [7], B5 registered a dissociation constant Kd of 25 µM. For the same molecule, the binding result in test [6] is given as “binds”. As to B6, the binding result in test [6] is listed as “binds”.
